From patent US20140287419A1, “Compositions Having Dicamba Decarboxylase Activity and Methods of Use” (priority 2013, published 2014) come the findings set out here.

The chains are these.
B1: 45 (protein)
chain: MANDDLAEVIAAHPDRFAGFAALPMRDPQAAAVELQRAVGTHGFCGAMINGLIEGRFLDDPAFAPLLSTAADLGVPLYLHPSFPPPQVAEIYFGGLAPVLGDLLATAGWGWHAETALHVLRLVATGVFDRLPELWVIVGHMGEMIPFALARIDTVLSPVAQLRQPVAQYFQTNVWFTTSGYTTFPPLQCALSTVGIDRLIFSVDYPYTDNTSARALLDTAPISPVDREKLAHGTVEALLRV
modifications: Mycobacterium sp
B2: 50 (protein, listed as Streptomyces sp.)
chain: MARIVTLEEHWTDPAVTAAGMPNLLDHVPGYAAAFDPDTGMPYPRHPELLEDLGAARIADMDRHGITTQVLSLVNTFLPADVAPRLTAAANDAMAAAVEAFPGRFAAFATLPTAVPGAAADELRRCVGELGFVGTMIMGRTDGEFLDQPRFDPILRAASDLSVPVYLHPAPPPVAVSEASYAGGLSPAVSAAFRLAAWGWHQETAVHLLHLVLAGVLDRYPGLQFVLGHWGEFIPFYLDRLDESMPRRMTGLDRTFREYFRDNVFITPSGMFSQAQLRYCADTVGTDRIIHSVDFPMLGNEGAVSFLTDSHLSREDQEKIAHGNADALLGLG
B3: 48 (protein, listed as Amycolatopsis mediterranei)
chain: MASMKLYGLEEHFVTADVIEAWRRRDPGLAEPMMKWAVASDITPALLDVDGGRIAAMDDAGIDTTVLSLTTPGLQNLDAAEAVALQAPTNDLIAAAVRRHPGRFQGFATLATSAPAAAADELRRAVTELGLNGALVNANSRGRALDAPGFWDIYEAAEDLRAPVYLHPGVPVPAVTEAYYRGFGEPVNSMLATGAFGWHYDAGLTILRMIVAGVFDRFPGLQVILGHWGEVVLFYLDRVAAMDKLTALRRPIAEYFRSNIFITPGGISSHKYLRWSLETVGVERIMYASDYPFNTERAGSARRFLDTAPVDEAGRERIAYRNWEELIAGIRR
B4: 49 (protein, listed as Streptomyces sp.)
chain: MAKIIALEEHFSDPAVAKAGAARARALSPGFAASYSPASGLPYSPSPEVLENLAEKRLADMDAGGITMQVLSGLGAQTVPADVAPALVAGSNDKAAAAVRAHPDRFAAFAALPTATPEAAVAELDRSVNELGFVGTLIMGRTEGEFLDAPRFEPILARAAALKVPVFLHPGVPPREITDSNYAAGLPTGIGTRLQTAAWGWHQETAVHFLHLVHSGVLDRYPDLQFILGHWGEMIPFYLDRVDEALPQRATGLDRSFHEYFRENVYLAPSGMWSQAQLRFCLETVPLERIVFAVDYPFIGNEGAVPFLEKAELPQADKRKIAHENAERLLGL
B5: 47 (protein, listed as Serratia odorifera)
chain: MAKIICLEEHTLDKALVMASMPAALAQAPFLSDWGKTITDGNLPDRSRPQIEKNDLINVKGADIGRGRLDDMDEAGITMQVLSVGGFPHLISAAEGVDLNRAANDRLANAVNAHPDRFAAFATLPWAQPDAAEKELERAVKELGFKGALLNGRPSIHFLDHPDYDGLLARFNALGVPLYLHPGLPVRSVQQAYYSGFSDEVTARLSMFGWGWHHEAGIHLLRLILSGAFDKYPNLQVISGHWGEMLPFWLQRLDDSLPQAATGLRRTITQTFREQVYVTPSGMLTLPHFQFIYALLGAERILFSVDYPYQTLDGVKAFIQSLPVPEEAKEAIAFRNAERLFGLTS
B6: 46 (protein, listed as Rhodococcus opacus)
chain: MARIITLEEHYLDPAIAAASAPLARELSPDFAAAYDPASGLSYTPSAQVLQDLGQRRIADMDTHGISMQVLSCLTTQQVPADVAPDLVRAANDTAAAAVRAHPDRFAAFAALPTTAPDAAATELARCIDDLGFVGTMINGRTDGEFLDAPRFDPILATAAARNVPIYLHPAVPPRATSDSNYAGLAPLVTARLQTSAWGWHQETAVHFLHLVLSGVLDRYPNLQFILGHWGEMIPFYLDRLDEALPQAVTNLDRTISDYVRENVYITPSGMFNQAQLQYCVETLGVDRILYSVDYPFIGNDGAVSFLDEANLPDEAKHQIAHQNTEKLLGL

One data set in a line: 14C assay with IPTG-induced recombinant E. coli cells (14CO2 capture from [14C]-carboxyl-labeled dicamba). To be noted: IPTG-induced recombinant E. coli cells; [14C]-carboxyl-labeled dicamba; 14CO2 capture.
Regarding B1, the “Dicamba Decarboxylase Activity” value is given as “No”.

Regarding B2, the “Dicamba Decarboxylase Activity” value is reported as “High”.

In the case of B3, the “Dicamba Decarboxylase Activity” value is “High”.

In the case of B4, the “Dicamba Decarboxylase Activity” value was “High”.

In the case of B5, the “Dicamba Decarboxylase Activity” value is “High”.

For B6, the “Dicamba Decarboxylase Activity” value was “High”.

Staying with this data set, now noted: dicamba decarboxylation activity of the protein of the given SEQ ID NO.
For B1, the “Enzymatic Detection level” value was “No”.

As for B2, the “Enzymatic Detection level” value is “High”.

On to B3, for which the “Enzymatic Detection level” value is reported as “High”.

In the case of B4, the “Enzymatic Detection level” value was “High”.

For B5, the “Enzymatic Detection level” value is given as “High”.

Consider B6, for which the “Enzymatic Detection level” value is recorded as “High”.
